Experiment [1] deals with T1, HIV-1 p24 protein (HIV-1, UniProt P03349 135-365).
T1 construct: also called HIV-1 p24 antigen; HIV-p24
Put plainly: BLI, antibody captured on anti-mouse Fc biosensors, 1:1 model.

In experiment [2] the target is T1, HIV-1 p24 protein. Put plainly: indirect ELISA on HIV-1 p24, OD 405 nm, antibody titrated 1:10 from 2 µg/mL (no unit beside the EC50; taken from the x axis, p24 Antibody [ng/mL]).

Bounds are passed on as bounds.

B1: anti-HIV-1 antibody #D (antibody, V domains shown)
VH: QIQLQQSGPELVKPGASVKVSCKASGYAFTSYQLYWVKQSHGKSLEWIGYIDPYNGGTGYNQKFKGKATLTVDKSSSTAYMHLNSLTSEDSAVYYCASPRWLPAGDYWGQGTSVTVSS
VL: DVVMTQTPLSLPVSLGDQASISCRSSQSLVNSDGNTFLQWLLQKPGQSPKLLIYKVSNRFSGVPDRFSGSGSGTDFTLRISRVEAEDLGVYFCSQSTHVPWTFGGGTKLEIKR
notes: recombinant, expressed in CHO cells; also called mAb D; monoclonal antibody D
In the experiment with HIV-1 p24 protein [1], B1 displayed a Kd below 0.00052 nM, a koff below 1e-07 s⁻¹ and a kon of 194000 M⁻¹ s⁻¹. For the same molecule, the EC50 in the experiment with HIV-1 p24 protein [2] worked out at 8.41 ng/mL.

B2: anti-HIV-1 antibody #B (antibody, V domains shown)
VH: EVQLVESGGGLVKPGGSLKLSCAASGFAFSSYDMSWVRQTPDKRLEWVAYITSGVGNLNYLDTVKGRFTISRDNAKNTLYLQMSSLRSEDTAMYFCLRPPSYFGSSYDAMDYWGRGTSVTVSS
VL: DIVLTQSPATLSVTPGDSVSLSCRASQSISDNLHWYRQKSHESPRLLIKYSSQSISGIPSRFSGSGSGTDFTLSINSVETEDFGMYFCQQSNSWPFTFGSGTNLELKR
notes: recombinant, expressed in CHO cells; also called mAb B
B2: in the experiment with HIV-1 p24 protein [1], the Kd is below 0.00024 nM, the koff is below 1e-07 s⁻¹ and the kon was 408000 M⁻¹ s⁻¹. The molecule also returned an EC50 with HIV-1 p24 protein [2] of 76.7 ng/mL.

B3: anti-HIV-1 antibody #A (antibody, V domains shown)
VH: EVKLVESGGGLVKPGGSLQLSCVASGFTFSSYAMSWVRQTPEKGLEWVASITSGGNTYYPDSVKGRFTISRDNAGNILYLQMSSLRSEDTAMFYCAREVLSVPFAYWGQGTLVTVST
VL: DIQMTQTTSSLSASLGDRVTINCRASQDISNYLHWYQQKPDGTVKLLIYYTSRLHSGVPSRFSGSGSGTDYSLTISNLEKEDIATYFCQQGNSFPWTFGGGTKVEIKR
notes: recombinant, expressed in CHO cells; also called mAb A
Consider B3, for which, in the experiment with HIV-1 p24 protein [1], binding was put at a Kd of 0.2 nM, the koff came to 5.9e-05 s⁻¹ and the kon worked out at 241000 M⁻¹ s⁻¹. In the experiment with HIV-1 p24 protein [2], this molecule had an EC50 of 3.6 ng/mL.

These data come from US20240239876A1 (GRIFOLS DIAGNOSTIC SOLUTIONS, published 2024).
